This is an account of results in patent US20180155427A1 (Novartis, published 2018).

For assay [1], the target named is T1, human PD-1 expressed on cells (human, UniProt Q15116 25-288).
T1 construct: whole, on cells; Treated as one molecule; also called PD-1 expressing Jurkat cells; human PD-1 transfected Jurkat cells
Nature of the assay: rank among the 16 humanized clones in competition with Alexa 488-labeled murine mAb BAP049 on PD-1-expressing 300.19 cells, second experiment. How it is done: (§1) Incubations with the mAb mixtures having different concentration ratios of test mAb to labeled mAb was at 4° C. for 30 min. Bound labeled murine mAb was then quantified using a FACS machine. The experiment was performed twice.

Assay [2] deals with T1, human PD-1 expressed on cells. Put plainly: rank among the 16 humanized clones by FACS binding data on PD-1-expressing cells. A general note: Flow cytometry measures light scatter and fluorescence of single cells or particles in a stream.
Assay [3] has the same target. Put plainly: rank among the 16 humanized clones in competition with Alexa 488-labeled murine mAb BAP049 on PD-1-expressing 300.19 cells, first experiment. How it is done: as §1

T1 sequence (Q15116 25-288): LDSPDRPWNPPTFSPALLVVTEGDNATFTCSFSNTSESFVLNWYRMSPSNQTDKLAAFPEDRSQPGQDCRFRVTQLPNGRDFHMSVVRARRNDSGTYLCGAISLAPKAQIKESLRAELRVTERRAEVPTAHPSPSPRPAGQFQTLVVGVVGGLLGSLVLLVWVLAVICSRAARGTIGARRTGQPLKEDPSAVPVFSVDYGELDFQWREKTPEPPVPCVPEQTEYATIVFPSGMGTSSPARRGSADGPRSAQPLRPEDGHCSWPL

B1: humanized mAb BAP049-hum13 (antibody, human IgG4 S228P, kappa)
heavy: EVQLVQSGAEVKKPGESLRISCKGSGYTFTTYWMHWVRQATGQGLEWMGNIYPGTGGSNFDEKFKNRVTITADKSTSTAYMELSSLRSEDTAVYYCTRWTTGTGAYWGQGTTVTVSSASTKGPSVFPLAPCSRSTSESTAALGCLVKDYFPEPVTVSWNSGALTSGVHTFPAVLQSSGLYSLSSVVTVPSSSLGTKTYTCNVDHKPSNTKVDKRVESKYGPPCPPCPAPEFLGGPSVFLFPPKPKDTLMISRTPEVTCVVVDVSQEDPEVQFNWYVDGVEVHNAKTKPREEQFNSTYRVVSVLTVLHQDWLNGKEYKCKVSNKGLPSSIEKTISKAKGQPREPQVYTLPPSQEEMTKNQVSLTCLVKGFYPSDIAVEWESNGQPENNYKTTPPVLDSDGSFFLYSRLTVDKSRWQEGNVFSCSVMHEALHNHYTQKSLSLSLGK
light: DVVMTQSPLSLPVTLGQPASISCKSSQSLLDSGNQKNFLTWYQQKPGKAPKLLIYWASTRESGVPSRFSGSGSGTDFTFTISSLEAEDAATYYCQNDYSYPYTFGQGTKVEIKRTVAAPSVFIFPPSDEQLKSGTASVVCLLNNFYPREAKVQWKVDNALQSGNSQESVTEQDSKDSTYSLSSTLTLSKADYEKHKVYACEVTHQGLSSPVTKSFNRGEC
notes: Human IgG4(S228P), human kappa; tested as concentrated supernatant of transiently transfected CHO cells
B1: the “Competition Binding 2nd exp. (rank)” value in assay [1] was determined as 1. Also, the “Ranking FACS data” value in assay [2] was 6. The “Competition Binding 1st exp. (rank)” value in assay [3] is 1.

B2: humanized mAb BAP049-hum16 (antibody, human IgG4 S228P, kappa, V domains shown)
VH: EVQLVQSGAEVKKPGESLRISCKGSGYTFTTYWMHWVRQAPGQGLEWMGNIYPGTGGSNFDEKFKNRFTISRDNSKNTLYLQMNSLRAEDTAVYYCTRWTTGTGAYWGQGTTVTVSS
VL: EIVLTQSPDFQSVTPKEKVTITCKSSQSLLDSGNQKNFLTWYQQKPGQAPRLLIYWASTRESGVPSRFSGSGSGTDFTFTISSLEAEDAATYYCQNDYSYPYTFGQGTKVEIKR
notes: as for B1
As to B2, in assay [1], the “Competition Binding 2nd exp. (rank)” value was determined as 15. In addition, the “Ranking FACS data” value in assay [2] was 15. The “Competition Binding 1st exp. (rank)” value in assay [3] was found to be 16.

B3: humanized mAb BAP049-hum03 (antibody, human IgG4 S228P, kappa, V domains shown)
VH: EVQLVQSGAEVKKPGESLRISCKGSGYTFTTYWMHWIRQSPSRGLEWLGNIYPGTGGSNFDEKFKNRFTISRDNSKNTLYLQMNSLRAEDTAVYYCTRWTTGTGAYWGQGTTVTVSS
VL: DIQMTQSPSSLSASVGDRVTITCKSSQSLLDSGNQKNFLTWYQQKPGQAPRLLIYWASTRESGIPPRFSGSGYGTDFTLTINNIESEDAAYYFCQNDYSYPYTFGQGTKVEIKR
notes: as for B1
In the case of B3, the “Competition Binding 2nd exp. (rank)” value in assay [1] came out at 14. Further, in assay [2], the “Ranking FACS data” value turned out to be 7. Further, the “Competition Binding 1st exp. (rank)” value in assay [3] came out at 8.

B4: humanized mAb BAP049-hum14 (antibody, human IgG4 S228P, kappa)
heavy: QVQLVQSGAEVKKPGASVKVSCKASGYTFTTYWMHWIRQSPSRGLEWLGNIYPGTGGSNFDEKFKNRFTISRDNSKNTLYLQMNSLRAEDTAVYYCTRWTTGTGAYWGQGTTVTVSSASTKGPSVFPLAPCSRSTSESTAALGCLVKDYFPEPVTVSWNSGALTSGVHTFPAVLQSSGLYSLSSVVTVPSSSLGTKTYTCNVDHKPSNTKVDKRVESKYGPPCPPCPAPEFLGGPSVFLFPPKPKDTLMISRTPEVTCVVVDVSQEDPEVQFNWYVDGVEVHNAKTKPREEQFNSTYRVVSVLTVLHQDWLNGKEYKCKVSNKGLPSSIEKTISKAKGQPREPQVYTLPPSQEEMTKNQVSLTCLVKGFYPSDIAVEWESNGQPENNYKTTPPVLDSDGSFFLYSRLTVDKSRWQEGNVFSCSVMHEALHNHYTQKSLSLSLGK
light: EIVLTQSPATLSLSPGERATLSCKSSQSLLDSGNQKNFLTWYQQKPGQAPRLLIYWASTRESGVPSRFSGSGSGTDFTFTISSLEAEDAATYYCQNDYSYPYTFGQGTKVEIKRTVAAPSVFIFPPSDEQLKSGTASVVCLLNNFYPREAKVQWKVDNALQSGNSQESVTEQDSKDSTYSLSSTLTLSKADYEKHKVYACEVTHQGLSSPVTKSFNRGEC
notes: as for B1
In the case of B4, in assay [1], the “Competition Binding 2nd exp. (rank)” value is 15. The “Ranking FACS data” value in assay [2] was 16. The “Competition Binding 1st exp. (rank)” value in assay [3] came to 7.

B5: humanized mAb BAP049-hum04 (antibody, human IgG4 S228P, kappa, V domains shown)
VH: EVQLVQSGAEVKKPGESLRISCKGSGYTFTTYWMHWIRQSPSRGLEWLGNIYPGTGGSNFDEKFKNRFTISRDNSKNTLYLQMNSLRAEDTAVYYCTRWTTGTGAYWGQGTTVTVSS
VL: EIVLTQSPATLSLSPGERATLSCKSSQSLLDSGNQKNFLTWYQQKPGKAPKLLIYWASTRESGVPSRFSGSGSGTDFTFTISSLQPEDIATYYCQNDYSYPYTFGQGTKVEIKR
notes: as for B1
As to B5, the “Competition Binding 2nd exp. (rank)” value in assay [1] amounted to 15. Further, the “Ranking FACS data” value in assay [2] was 14. Besides, the “Competition Binding 1st exp. (rank)” value in assay [3] came to 15.

B6: humanized mAb BAP049-hum08 (antibody, human IgG4 S228P, kappa)
heavy: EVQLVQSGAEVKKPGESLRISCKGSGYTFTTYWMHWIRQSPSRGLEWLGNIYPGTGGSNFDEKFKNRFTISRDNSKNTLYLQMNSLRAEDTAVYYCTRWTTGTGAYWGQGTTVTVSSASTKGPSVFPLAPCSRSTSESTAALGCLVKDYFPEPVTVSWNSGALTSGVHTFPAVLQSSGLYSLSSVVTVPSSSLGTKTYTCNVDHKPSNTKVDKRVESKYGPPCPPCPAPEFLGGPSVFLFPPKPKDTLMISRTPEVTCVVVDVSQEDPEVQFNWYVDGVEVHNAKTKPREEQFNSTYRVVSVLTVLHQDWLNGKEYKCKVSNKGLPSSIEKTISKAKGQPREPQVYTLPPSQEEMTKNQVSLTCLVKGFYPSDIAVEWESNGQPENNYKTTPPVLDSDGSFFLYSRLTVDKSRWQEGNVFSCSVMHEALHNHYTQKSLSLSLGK
light: EIVLTQSPDFQSVTPKEKVTITCKSSQSLLDSGNQKNFLTWYQQKPGQAPRLLIYWASTRESGVPSRFSGSGSGTDFTFTISSLEAEDAATYYCQNDYSYPYTFGQGTKVEIKRTVAAPSVFIFPPSDEQLKSGTASVVCLLNNFYPREAKVQWKVDNALQSGNSQESVTEQDSKDSTYSLSSTLTLSKADYEKHKVYACEVTHQGLSSPVTKSFNRGEC
notes: Human IgG4(S228P), human kappa; tested as concentrated supernatant of transiently transfected CHO cells; also called Clone No. 08
B6: the “Competition Binding 2nd exp. (rank)” value in assay [1] came to 4. The “Ranking FACS data” value in assay [2] turned out to be 7. The “Competition Binding 1st exp. (rank)” value in assay [3] was found to be 7.

B7: humanized mAb BAP049-hum15 (antibody, human IgG4 S228P, kappa)
heavy: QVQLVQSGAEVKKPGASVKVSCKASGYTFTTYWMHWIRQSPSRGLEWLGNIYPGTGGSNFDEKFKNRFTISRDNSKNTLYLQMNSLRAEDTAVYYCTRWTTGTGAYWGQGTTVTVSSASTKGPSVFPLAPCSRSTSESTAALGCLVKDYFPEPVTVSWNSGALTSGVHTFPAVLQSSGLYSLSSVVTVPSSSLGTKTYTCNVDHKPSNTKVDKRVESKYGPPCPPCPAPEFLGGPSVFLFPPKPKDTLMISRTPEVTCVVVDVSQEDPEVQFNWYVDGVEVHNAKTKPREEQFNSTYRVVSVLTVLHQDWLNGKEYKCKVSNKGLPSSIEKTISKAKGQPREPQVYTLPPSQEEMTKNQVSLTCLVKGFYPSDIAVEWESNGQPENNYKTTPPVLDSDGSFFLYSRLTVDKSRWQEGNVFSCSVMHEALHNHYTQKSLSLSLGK
light: EIVLTQSPDFQSVTPKEKVTITCKSSQSLLDSGNQKNFLTWYQQKPGQAPRLLIYWASTRESGVPSRFSGSGSGTDFTFTISSLEAEDAATYYCQNDYSYPYTFGQGTKVEIKRTVAAPSVFIFPPSDEQLKSGTASVVCLLNNFYPREAKVQWKVDNALQSGNSQESVTEQDSKDSTYSLSSTLTLSKADYEKHKVYACEVTHQGLSSPVTKSFNRGEC
notes: as for B1
On to B7, for which the “Competition Binding 2nd exp. (rank)” value in assay [1] amounted to 15. Moreover, the “Ranking FACS data” value in assay [2] came out at 6. Further, in assay [3], the “Competition Binding 1st exp. (rank)” value was determined as 7.

B8: humanized mAb BAP049-hum11 (antibody, human IgG4 S228P, kappa)
heavy: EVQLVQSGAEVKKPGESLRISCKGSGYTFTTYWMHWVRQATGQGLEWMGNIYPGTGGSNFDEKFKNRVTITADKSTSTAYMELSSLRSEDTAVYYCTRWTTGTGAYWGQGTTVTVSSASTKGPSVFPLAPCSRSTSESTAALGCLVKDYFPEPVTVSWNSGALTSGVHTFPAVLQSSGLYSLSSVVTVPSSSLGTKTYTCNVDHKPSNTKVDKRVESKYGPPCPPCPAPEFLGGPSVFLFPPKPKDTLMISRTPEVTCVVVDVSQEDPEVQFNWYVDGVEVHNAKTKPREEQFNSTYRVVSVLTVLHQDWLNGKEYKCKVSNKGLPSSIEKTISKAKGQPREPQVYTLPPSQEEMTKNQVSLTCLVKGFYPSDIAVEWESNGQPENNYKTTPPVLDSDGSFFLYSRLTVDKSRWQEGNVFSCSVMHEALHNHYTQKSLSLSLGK
light: EIVLTQSPATLSLSPGERATLSCKSSQSLLDSGNQKNFLTWYQQKPGQAPRLLIYWASTRESGVPSRFSGSGSGTDFTFTISSLEAEDAATYYCQNDYSYPYTFGQGTKVEIKRTVAAPSVFIFPPSDEQLKSGTASVVCLLNNFYPREAKVQWKVDNALQSGNSQESVTEQDSKDSTYSLSSTLTLSKADYEKHKVYACEVTHQGLSSPVTKSFNRGEC
notes: Human IgG4(S228P), human kappa; tested as concentrated supernatant of transiently transfected CHO cells; also called Clone No. 11
Take B8: the “Competition Binding 2nd exp. (rank)” value in assay [1] was above 4. Besides, the “Ranking FACS data” value in assay [2] worked out at 6. The “Competition Binding 1st exp. (rank)” value in assay [3] is 4.

B9: humanized mAb BAP049-hum06 (antibody, human IgG4 S228P, kappa)
heavy: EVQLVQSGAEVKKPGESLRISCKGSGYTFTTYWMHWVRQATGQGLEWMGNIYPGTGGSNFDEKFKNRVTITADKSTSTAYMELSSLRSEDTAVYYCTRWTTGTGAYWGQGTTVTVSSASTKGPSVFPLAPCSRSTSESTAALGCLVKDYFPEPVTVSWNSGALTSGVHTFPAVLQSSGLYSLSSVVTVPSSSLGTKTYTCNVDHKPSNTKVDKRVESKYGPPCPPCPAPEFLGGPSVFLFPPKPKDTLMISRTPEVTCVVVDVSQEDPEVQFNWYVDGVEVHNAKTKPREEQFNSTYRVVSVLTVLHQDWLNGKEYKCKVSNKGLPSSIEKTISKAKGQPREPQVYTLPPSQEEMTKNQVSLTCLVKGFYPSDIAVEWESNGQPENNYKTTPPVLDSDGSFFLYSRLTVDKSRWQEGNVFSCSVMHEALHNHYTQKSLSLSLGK
light: DIVMTQTPLSLPVTPGEPASISCKSSQSLLDSGNQKNFLTWYQQKPGQAPRLLIYWASTRESGVPSRFSGSGSGTDFTFTISSLEAEDAATYYCQNDYSYPYTFGQGTKVEIKRTVAAPSVFIFPPSDEQLKSGTASVVCLLNNFYPREAKVQWKVDNALQSGNSQESVTEQDSKDSTYSLSSTLTLSKADYEKHKVYACEVTHQGLSSPVTKSFNRGEC
notes: as for B1
For the molecule B9, the “Competition Binding 2nd exp. (rank)” value in assay [1] came out at 3. Also, the “Ranking FACS data” value in assay [2] worked out at 1. Further, the “Competition Binding 1st exp. (rank)” value in assay [3] is 7.

B10: humanized mAb BAP049-hum09 (antibody, human IgG4 S228P, kappa)
heavy: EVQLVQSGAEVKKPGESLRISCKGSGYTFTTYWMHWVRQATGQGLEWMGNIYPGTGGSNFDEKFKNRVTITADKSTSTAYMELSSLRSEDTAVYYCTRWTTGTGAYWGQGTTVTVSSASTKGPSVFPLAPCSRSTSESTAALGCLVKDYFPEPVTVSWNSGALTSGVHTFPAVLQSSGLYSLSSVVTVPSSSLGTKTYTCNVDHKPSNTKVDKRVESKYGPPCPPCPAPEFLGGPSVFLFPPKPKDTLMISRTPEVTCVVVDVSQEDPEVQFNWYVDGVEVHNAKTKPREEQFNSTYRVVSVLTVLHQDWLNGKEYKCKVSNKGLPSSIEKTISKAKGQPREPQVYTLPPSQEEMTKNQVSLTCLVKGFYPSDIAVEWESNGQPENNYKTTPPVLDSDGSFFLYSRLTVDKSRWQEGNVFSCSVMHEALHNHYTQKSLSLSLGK
light: EIVLTQSPDFQSVTPKEKVTITCKSSQSLLDSGNQKNFLTWYQQKPGQAPRLLIYWASTRESGVPSRFSGSGSGTDFTFTISSLEAEDAATYYCQNDYSYPYTFGQGTKVEIKRTVAAPSVFIFPPSDEQLKSGTASVVCLLNNFYPREAKVQWKVDNALQSGNSQESVTEQDSKDSTYSLSSTLTLSKADYEKHKVYACEVTHQGLSSPVTKSFNRGEC
notes: Human IgG4(S228P), human kappa; tested as concentrated supernatant of transiently transfected CHO cells; also called Clone No. 09
For the molecule B10, in assay [1], the “Competition Binding 2nd exp. (rank)” value amounted to 4. In addition, in assay [2], the “Ranking FACS data” value amounted to 7. Further, the “Competition Binding 1st exp. (rank)” value in assay [3] is 2.

B11: humanized mAb BAP049-hum07 (antibody, human IgG4 S228P, kappa)
heavy: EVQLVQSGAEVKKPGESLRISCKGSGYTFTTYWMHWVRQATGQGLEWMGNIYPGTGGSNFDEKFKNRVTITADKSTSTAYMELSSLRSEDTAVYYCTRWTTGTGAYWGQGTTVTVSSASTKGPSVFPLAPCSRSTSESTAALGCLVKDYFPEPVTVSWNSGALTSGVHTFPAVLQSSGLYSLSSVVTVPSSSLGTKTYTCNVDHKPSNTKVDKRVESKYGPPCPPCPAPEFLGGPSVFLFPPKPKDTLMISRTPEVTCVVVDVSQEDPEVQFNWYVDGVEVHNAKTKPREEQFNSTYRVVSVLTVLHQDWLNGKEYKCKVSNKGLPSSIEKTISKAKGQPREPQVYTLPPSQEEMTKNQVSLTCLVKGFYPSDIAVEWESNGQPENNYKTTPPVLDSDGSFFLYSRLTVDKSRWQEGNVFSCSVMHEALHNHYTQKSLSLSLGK
light: EIVLTQSPATLSLSPGERATLSCKSSQSLLDSGNQKNFLTWYQQKPGKAPKLLIYWASTRESGVPSRFSGSGSGTDFTFTISSLEAEDAATYYCQNDYSYPYTFGQGTKVEIKRTVAAPSVFIFPPSDEQLKSGTASVVCLLNNFYPREAKVQWKVDNALQSGNSQESVTEQDSKDSTYSLSSTLTLSKADYEKHKVYACEVTHQGLSSPVTKSFNRGEC
notes: as for B1
Regarding B11, the “Competition Binding 2nd exp. (rank)” value in assay [1] is above 4. For the same molecule, in assay [2], the “Ranking FACS data” value came to 4. Besides, in assay [3], the “Competition Binding 1st exp. (rank)” value turned out to be 7.

B12: humanized mAb BAP049-hum02 (antibody, human IgG4 S228P, kappa, V domains shown)
VH: EVQLVQSGAEVKKPGESLRISCKGSGYTFTTYWMHWVRQATGQGLEWMGNIYPGTGGSNFDEKFKNRVTITADKSTSTAYMELSSLRSEDTAVYYCTRWTTGTGAYWGQGTTVTVSS
VL: DIQMTQSPSSLSASVGDRVTITCKSSQSLLDSGNQKNFLTWYQQKPGQAPRLLIYWASTRESGIPPRFSGSGYGTDFTLTINNIESEDAAYYFCQNDYSYPYTFGQGTKVEIKR
notes: as for B1
On to B12, for which, in assay [1], the “Competition Binding 2nd exp. (rank)” value amounted to 2. Also, in assay [2], the “Ranking FACS data” value was found to be 6. Also, the “Competition Binding 1st exp. (rank)” value in assay [3] stood at 3.

B13: humanized mAb BAP049-hum12 (antibody, human IgG4 S228P, kappa, V domains shown)
VH: EVQLVQSGAEVKKPGESLRISCKGSGYTFTTYWMHWVRQATGQGLEWMGNIYPGTGGSNFDEKFKNRVTITADKSTSTAYMELSSLRSEDTAVYYCTRWTTGTGAYWGQGTTVTVSS
VL: DIQMTQSPSSLSASVGDRVTITCKSSQSLLDSGNQKNFLTWYLQKPGQSPQLLIYWASTRESGVPSRFSGSGSGTDFTFTISSLEAEDAATYYCQNDYSYPYTFGQGTKVEIKR
notes: as for B1
With B13, in assay [1], the “Competition Binding 2nd exp. (rank)” value amounted to 16. The “Ranking FACS data” value in assay [2] came to 3. The “Competition Binding 1st exp. (rank)” value in assay [3] stood at 8.
